Data: article PMC4059916, “VARP Is Recruited on to Endosomes by Direct Interaction with Retromer, Where Together They Function in Export to the Cell Surface” (Developmental Cell, 2014)

T1: SeMet-Rab32 1-225 (Q85L/V100M/Q153M/V158M/I192M) (UniProt Q13637 1-225, Q85L | V100M | Q153M | V158M | I192M, selenomethionine (SeMet protein))
T1 construct: Rab32 residues 1-225; also called SeMet-Rab32Q85L; source: E. coli B834, M9 media (seleno-methionine), purified
T1 sequence (looked up): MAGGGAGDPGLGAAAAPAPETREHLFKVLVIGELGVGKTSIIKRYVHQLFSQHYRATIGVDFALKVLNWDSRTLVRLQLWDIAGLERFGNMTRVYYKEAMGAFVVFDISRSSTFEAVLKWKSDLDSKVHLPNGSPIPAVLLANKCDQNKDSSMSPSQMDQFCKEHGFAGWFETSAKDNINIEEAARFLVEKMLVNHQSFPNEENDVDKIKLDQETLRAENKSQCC

B1: Rab32 1-225 (Q85L), GTP hydrolysis-defective mutant, GST removed (enzyme, UniProt Q13637 1-225, looked up)
chain: MAGGGAGDPGLGAAAAPAPETREHLFKVLVIGELGVGKTSIIKRYVHQLFSQHYRATIGVDFALKVLNWDSRTLVRLQLWDIAGLERFGNMTRVYYKEAVGAFVVFDISRSSTFEAVLKWKSDLDSKVHLPNGSPIPAVLLANKCDQNKDSSQSPSQVDQFCKEHGFAGWFETSAKDNINIEEAARFLVEKILVNHQSFPNEENDVDKIKLDQETLRAENKSQCC
notes: Rab32, residues 1-225; limits 1-225 are printed for the crystallised construct; also called Rab32(Q85L); Rab32Q85L

Key:
Settings in all cases: both partners purified
[1] = biological target: VPS29, recombinant, as used in ITC (UniProt Q9UBQ0 1-182); assay: ITC; recombinant VARP Cys-rich motif fragments and VPS29; who was titrated is not told
[2] = biological target: T2, VARP fragment, residues 397-650 (human, UniProt Q96NW4 397-650); assay: ITC; Nano ITC; VARP constructs at 60 μM in the cell at 4°C, Rab constructs at 300 μM titrated, 24 injections of 2 μl; 50 mM HEPES pH 7.4, 200 mM NaCl, 5 mM MgCl2, 1 mM TCEP
T2 construct: VARP (VPS9-domain ankyrin repeat protein; 1,050 residues), residues 397-650, contains ANKRD1; source: E. coli Rosetta 2 pLysS, purified (GSH-sepharose, PreScission cleavage, Superdex 75)

[3] = biological target: T1, SeMet-Rab32 1-225 …; assay: crystal structure; sitting drop vapor diffusion at 18°C, PEG 3350, 200 mM sodium citrate pH 8.0; molecular replacement
[4] = biological target: B1; assay: ITC; Nano ITC; VARP constructs at 60 μM in the cell at 4°C, Rab constructs at 300 μM titrated, 24 injections of 2 μl; 50 mM HEPES pH 7.4, 200 mM NaCl, 5 mM MgCl2, 1 mM TCEP

T2 sequence (Q96NW4 397-650): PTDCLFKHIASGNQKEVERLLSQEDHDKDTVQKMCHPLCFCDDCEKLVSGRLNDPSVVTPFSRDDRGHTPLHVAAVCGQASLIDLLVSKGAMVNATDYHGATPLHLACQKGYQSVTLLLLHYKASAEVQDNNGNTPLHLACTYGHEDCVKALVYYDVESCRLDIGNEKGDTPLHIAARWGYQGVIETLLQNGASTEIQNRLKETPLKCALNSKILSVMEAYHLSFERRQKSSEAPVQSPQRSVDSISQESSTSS

| Kd [4] [µM] | Binder | other results |
| --- | --- | --- |
|  | VARP fragment with the second Cys-rich motif, 4C2 (C711S/C715S/C717S/C720S), as used in ITC (domain or fragment, VARP; source: E. coli, purified) TEEDLEDAEDTVSAADPEFSHPLSQSPKSAPAQKRLAKVPASGLGVNVTSQDGSS | fold decrease in binding against the wild-type fragment [1]: ~20 fold |
|  | B1 | Kd [2]: 7 µM |
| 2.5 | VARP451-640His6 (first ankyrin repeat domain, ANKRD1), wild type (domain or fragment, human, UniProt Q96NW4 451-640, looked up, VARP (VPS9-domain ankyrin repeat protein); also called VARP ANKRD1; VARP-ANKR domain 1; source: E. coli Rosetta 2 pLysS, purified (GSH-sepharose, PreScission cleavage, Ni-NTA agarose, Superdex 75); not shown: His6, C-terminal, kept) PSVVTPFSRDDRGHTPLHVAAVCGQASLIDLLVSKGAMVNATDYHGATPLHLACQKGYQSVTLLLLHYKASAEVQDNNGNTPLHLACTYGHEDCVKALVYYDVESCRLDIGNEKGDTPLHIAARWGYQGVIETLLQNGASTEIQNRLKETPLKCALNSKILSVMEAYHLSFERRQKSSEAPVQSPQRSVD | binding result [3]: binds |
| > 300 | VARP451-640His6 L513D (domain or fragment, human, UniProt Q96NW4 451-640, looked up, source: E. coli Rosetta 2 pLysS, purified; not shown: His6, C-terminal, kept) PSVVTPFSRDDRGHTPLHVAAVCGQASLIDLLVSKGAMVNATDYHGATPLHLACQKGYQSVTDLLLHYKASAEVQDNNGNTPLHLACTYGHEDCVKALVYYDVESCRLDIGNEKGDTPLHIAARWGYQGVIETLLQNGASTEIQNRLKETPLKCALNSKILSVMEAYHLSFERRQKSSEAPVQSPQRSVD |  |
| ~8 | VARP451-640His6 K546D (domain or fragment, human, UniProt Q96NW4 451-640, looked up, also called VARP(K546D); source: E. coli Rosetta 2 pLysS, purified; not shown: His6, C-terminal, kept) PSVVTPFSRDDRGHTPLHVAAVCGQASLIDLLVSKGAMVNATDYHGATPLHLACQKGYQSVTLLLLHYKASAEVQDNNGNTPLHLACTYGHEDCVDALVYYDVESCRLDIGNEKGDTPLHIAARWGYQGVIETLLQNGASTEIQNRLKETPLKCALNSKILSVMEAYHLSFERRQKSSEAPVQSPQRSVD |  |
| ~22 | VARP451-640His6 Y550A (domain or fragment, human, UniProt Q96NW4 451-640, looked up, also called VARP(Y550A); source: E. coli Rosetta 2 pLysS, purified; not shown: His6, C-terminal, kept) PSVVTPFSRDDRGHTPLHVAAVCGQASLIDLLVSKGAMVNATDYHGATPLHLACQKGYQSVTLLLLHYKASAEVQDNNGNTPLHLACTYGHEDCVKALVAYDVESCRLDIGNEKGDTPLHIAARWGYQGVIETLLQNGASTEIQNRLKETPLKCALNSKILSVMEAYHLSFERRQKSSEAPVQSPQRSVD |  |
